From article PMC4381397, “The recently identified modifier of murine metastable epialleles, Rearranged L-Myc Fusion, is involved in maintaining epigenetic marks at CpG island shores and enhancers” come the findings set out here.

This series has as its target Gata1CF (UniProt P17679 249-311). The series can be described thus: EMSA; 0.5 and 5 uM protein, 5 nM probe, 10 uM ZnSO4; 10 mM HEPES pH 7.9, 30 mM NaCl, 1 mM MgCl2, 20 uM EDTA, 10 mM DTT, 10 uM ZnSO4, 67 ug/mL acetylated BSA, 4% Ficoll; on ice 30 min. The conditions noted are these: protein: recombinant; label: 5' FAM. (A gel shift assay detects complexes by their altered migration in electrophoresis.)

Gata1CF, sequence (P17679 249-311): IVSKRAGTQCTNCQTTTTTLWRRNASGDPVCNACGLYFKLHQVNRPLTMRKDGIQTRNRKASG

B1: PP4 pentaprobe (ssDNA)
DNA: TATCCTACCCATTGGGCTCATCTGATCCATCCGGTCCCGTCCACTCGGCTATGTTATGCTGTATTGCAGTCGTGTCGCGTCGAGCTGCCCTAATCCCACC
B1: the binding result was “binds”.

B2: PP2 pentaprobe (ssDNA)
DNA: TATCTTACTTTAGTTTCATTTAATTGTGTTGTACTCTCCTCTGCGTTCACTTAGCTTAACTTGGTTTGGCTTGATTTGACTTCAGTTGCGCTCTATTCTA
On to B2, for which the binding result was “binds”.
